Test [1] concerns 3-phosphoglycerate dehydrogenase (PGD). Briefly: PGD enzyme activity in crude extracts (McKitrick and Pizer test). The format is biochemical, Escherichia coli. Particulars: crude extract of strain expressing plasmid-encoded serA allele; backward reaction, NADH oxidation at 340 nm. The source says: (§1) For example, the PGD activity can be determined in analogy with the method described by McKitrick and Pizer (1980, J. Bacteriol. 141:235-245). The backward reaction is used to measure the enzyme activity in an assay sample which contains phosphohydroxypyruvate and NADH/H^+. The reaction is started by adding enzyme and is monitored in a spectrophotometer by way of the decrease in extinction at 340 nm which is caused by oxidation of the NADH/H^+.
(§2) At an optical density of 1.0, serA expression was in each case induced by adding 0.4 mM […] and the culture was incubated for a further 3 hours. The cells were subsequently harvested by centrifugation, washed and resuspended in 2 ml of buffer (100 mM K-phosphate, pH 7.0; 10 mM MgCl2; 1 mM dithiothreitol). The cells were disrupted using a French press (Spectronic Instruments, Inc. Rochester, N.Y., USA) at a pressure of 18 000 psi. The crude extracts were clarified by centrifugation at 30 000 g and PGD activity was determined using the McKitrick and Pizer test (1980, J. Bacteriol. 141:235-245).

For test [2], the target named is 3-phosphoglycerate dehydrogenase (PGD). Nature of the test: Inhibition of PGD activity by L-serine, inhibitor constant Ki. The format is biochemical, Escherichia coli. Conditions: Ki = inhibitor concentration at which activity is 50% of activity without inhibitor.
From the text: as §1, §2

B1: serA49: E. coli PGD variant with replacement G349P (protein, UniProt P0A9T0 2-410, looked up, variant G349P)
D-3-phosphoglycerate …: AKVSLEKDKIKFLLVEGVHQKALESLRAAGYTNIEFHKGALDDEQLKESIRDAHFIGLRSRTHLTEDVINAAEKLVAIGCFCIGTNQVDLDAAAKRGIPVFNAPFSNTRSVAELVIGELLLLLRGVPEANAKAHRGVWNKLAAGSFEARGKKLGIIGYGHIGTQLGILAESLGMYVYFYDIENKLPLGNATQVQHLSDLLNMSDVVSLHVPENPSTKNMMGAKEISLMKPGSLLINASRGTVVDIPALCDALASKHLAGAAIDVFPTEPATNSDPFTSPLCEFDNVLLTPHIGGSTQEAQENIGLEVAGKLIKYSDNGSTLSAVNFPEVSLPLHGGRRLMHIHENRPPVLTALNKIFAEQGVNIAAQYLQTSAQMGYVVIDIEADEDVAEKALQAMKAIPGTIRARLLY
Turning to B1, in test [1], the Activity amounted to 0.05 units/mg. The Ki in test [2] was 6 mM.

B2: serA410: E. coli PGD variant with replacement G349S (protein, UniProt P0A9T0 2-410, looked up, variant G349S)
D-3-phosphoglycerate …: AKVSLEKDKIKFLLVEGVHQKALESLRAAGYTNIEFHKGALDDEQLKESIRDAHFIGLRSRTHLTEDVINAAEKLVAIGCFCIGTNQVDLDAAAKRGIPVFNAPFSNTRSVAELVIGELLLLLRGVPEANAKAHRGVWNKLAAGSFEARGKKLGIIGYGHIGTQLGILAESLGMYVYFYDIENKLPLGNATQVQHLSDLLNMSDVVSLHVPENPSTKNMMGAKEISLMKPGSLLINASRGTVVDIPALCDALASKHLAGAAIDVFPTEPATNSDPFTSPLCEFDNVLLTPHIGGSTQEAQENIGLEVAGKLIKYSDNGSTLSAVNFPEVSLPLHGGRRLMHIHENRPSVLTALNKIFAEQGVNIAAQYLQTSAQMGYVVIDIEADEDVAEKALQAMKAIPGTIRARLLY
With B2, in test [1], the Activity stood at 0.04 units/mg. Also, the Ki in test [2] came out at 2 mM.

B3: serA223: E. coli PGD variant with replacement T372E (protein, UniProt P0A9T0 2-410, looked up, variant T372E)
D-3-phosphoglycerate …: AKVSLEKDKIKFLLVEGVHQKALESLRAAGYTNIEFHKGALDDEQLKESIRDAHFIGLRSRTHLTEDVINAAEKLVAIGCFCIGTNQVDLDAAAKRGIPVFNAPFSNTRSVAELVIGELLLLLRGVPEANAKAHRGVWNKLAAGSFEARGKKLGIIGYGHIGTQLGILAESLGMYVYFYDIENKLPLGNATQVQHLSDLLNMSDVVSLHVPENPSTKNMMGAKEISLMKPGSLLINASRGTVVDIPALCDALASKHLAGAAIDVFPTEPATNSDPFTSPLCEFDNVLLTPHIGGSTQEAQENIGLEVAGKLIKYSDNGSTLSAVNFPEVSLPLHGGRRLMHIHENRPGVLTALNKIFAEQGVNIAAQYLQESAQMGYVVIDIEADEDVAEKALQAMKAIPGTIRARLLY
The molecule B3 registered an Activity in test [1] of 0.04 units/mg.

B4: serA411: E. coli PGD variant with replacement G349T (protein, UniProt P0A9T0 2-410, looked up, variant G349T)
D-3-phosphoglycerate …: AKVSLEKDKIKFLLVEGVHQKALESLRAAGYTNIEFHKGALDDEQLKESIRDAHFIGLRSRTHLTEDVINAAEKLVAIGCFCIGTNQVDLDAAAKRGIPVFNAPFSNTRSVAELVIGELLLLLRGVPEANAKAHRGVWNKLAAGSFEARGKKLGIIGYGHIGTQLGILAESLGMYVYFYDIENKLPLGNATQVQHLSDLLNMSDVVSLHVPENPSTKNMMGAKEISLMKPGSLLINASRGTVVDIPALCDALASKHLAGAAIDVFPTEPATNSDPFTSPLCEFDNVLLTPHIGGSTQEAQENIGLEVAGKLIKYSDNGSTLSAVNFPEVSLPLHGGRRLMHIHENRPTVLTALNKIFAEQGVNIAAQYLQTSAQMGYVVIDIEADEDVAEKALQAMKAIPGTIRARLLY
B4 registered an Activity in test [1] of 0.04 units/mg. Also, in test [2], the affinity, expressed as Ki, was 3 mM.

B5: serA412: E. coli PGD variant with replacement G349V (protein, UniProt P0A9T0 2-410, looked up, variant G349V)
D-3-phosphoglycerate …: AKVSLEKDKIKFLLVEGVHQKALESLRAAGYTNIEFHKGALDDEQLKESIRDAHFIGLRSRTHLTEDVINAAEKLVAIGCFCIGTNQVDLDAAAKRGIPVFNAPFSNTRSVAELVIGELLLLLRGVPEANAKAHRGVWNKLAAGSFEARGKKLGIIGYGHIGTQLGILAESLGMYVYFYDIENKLPLGNATQVQHLSDLLNMSDVVSLHVPENPSTKNMMGAKEISLMKPGSLLINASRGTVVDIPALCDALASKHLAGAAIDVFPTEPATNSDPFTSPLCEFDNVLLTPHIGGSTQEAQENIGLEVAGKLIKYSDNGSTLSAVNFPEVSLPLHGGRRLMHIHENRPVVLTALNKIFAEQGVNIAAQYLQTSAQMGYVVIDIEADEDVAEKALQAMKAIPGTIRARLLY
B5 showed an Activity in test [1] of 0.05 units/mg. This molecule came in with a Ki in test [2] of 5 mM.

B6: serA206: E. coli PGD variant with replacement T372P (protein, UniProt P0A9T0 2-410, looked up, variant T372P)
D-3-phosphoglycerate …: AKVSLEKDKIKFLLVEGVHQKALESLRAAGYTNIEFHKGALDDEQLKESIRDAHFIGLRSRTHLTEDVINAAEKLVAIGCFCIGTNQVDLDAAAKRGIPVFNAPFSNTRSVAELVIGELLLLLRGVPEANAKAHRGVWNKLAAGSFEARGKKLGIIGYGHIGTQLGILAESLGMYVYFYDIENKLPLGNATQVQHLSDLLNMSDVVSLHVPENPSTKNMMGAKEISLMKPGSLLINASRGTVVDIPALCDALASKHLAGAAIDVFPTEPATNSDPFTSPLCEFDNVLLTPHIGGSTQEAQENIGLEVAGKLIKYSDNGSTLSAVNFPEVSLPLHGGRRLMHIHENRPGVLTALNKIFAEQGVNIAAQYLQPSAQMGYVVIDIEADEDVAEKALQAMKAIPGTIRARLLY
In turn, B6 came in with an Activity in test [1] of 0.05 units/mg.

B7: serA229: E. coli PGD variant with replacement T372R (protein, UniProt P0A9T0 2-410, looked up, variant T372R)
D-3-phosphoglycerate …: AKVSLEKDKIKFLLVEGVHQKALESLRAAGYTNIEFHKGALDDEQLKESIRDAHFIGLRSRTHLTEDVINAAEKLVAIGCFCIGTNQVDLDAAAKRGIPVFNAPFSNTRSVAELVIGELLLLLRGVPEANAKAHRGVWNKLAAGSFEARGKKLGIIGYGHIGTQLGILAESLGMYVYFYDIENKLPLGNATQVQHLSDLLNMSDVVSLHVPENPSTKNMMGAKEISLMKPGSLLINASRGTVVDIPALCDALASKHLAGAAIDVFPTEPATNSDPFTSPLCEFDNVLLTPHIGGSTQEAQENIGLEVAGKLIKYSDNGSTLSAVNFPEVSLPLHGGRRLMHIHENRPGVLTALNKIFAEQGVNIAAQYLQRSAQMGYVVIDIEADEDVAEKALQAMKAIPGTIRARLLY
Consider B7, for which the Activity in test [1] is 0.04 units/mg.

B8: serA415: E. coli PGD variant with replacement G349K (protein, UniProt P0A9T0 2-410, looked up, variant G349K)
D-3-phosphoglycerate …: AKVSLEKDKIKFLLVEGVHQKALESLRAAGYTNIEFHKGALDDEQLKESIRDAHFIGLRSRTHLTEDVINAAEKLVAIGCFCIGTNQVDLDAAAKRGIPVFNAPFSNTRSVAELVIGELLLLLRGVPEANAKAHRGVWNKLAAGSFEARGKKLGIIGYGHIGTQLGILAESLGMYVYFYDIENKLPLGNATQVQHLSDLLNMSDVVSLHVPENPSTKNMMGAKEISLMKPGSLLINASRGTVVDIPALCDALASKHLAGAAIDVFPTEPATNSDPFTSPLCEFDNVLLTPHIGGSTQEAQENIGLEVAGKLIKYSDNGSTLSAVNFPEVSLPLHGGRRLMHIHENRPKVLTALNKIFAEQGVNIAAQYLQTSAQMGYVVIDIEADEDVAEKALQAMKAIPGTIRARLLY
Turning to B8, the Activity in test [1] was 0.03 units/mg. For the same molecule, in test [2], the affinity corresponds to a Ki of 15 mM.

B9: serA414: E. coli PGD variant with replacement G349A (protein, UniProt P0A9T0 2-410, looked up, variant G349A)
D-3-phosphoglycerate …: AKVSLEKDKIKFLLVEGVHQKALESLRAAGYTNIEFHKGALDDEQLKESIRDAHFIGLRSRTHLTEDVINAAEKLVAIGCFCIGTNQVDLDAAAKRGIPVFNAPFSNTRSVAELVIGELLLLLRGVPEANAKAHRGVWNKLAAGSFEARGKKLGIIGYGHIGTQLGILAESLGMYVYFYDIENKLPLGNATQVQHLSDLLNMSDVVSLHVPENPSTKNMMGAKEISLMKPGSLLINASRGTVVDIPALCDALASKHLAGAAIDVFPTEPATNSDPFTSPLCEFDNVLLTPHIGGSTQEAQENIGLEVAGKLIKYSDNGSTLSAVNFPEVSLPLHGGRRLMHIHENRPAVLTALNKIFAEQGVNIAAQYLQTSAQMGYVVIDIEADEDVAEKALQAMKAIPGTIRARLLY
In test [1], B9 returned an Activity of 0.05 units/mg. Besides, in test [2], the Ki is 1 mM.

B10: serA234: E. coli PGD variant with replacement T372K (protein, UniProt P0A9T0 2-410, looked up, variant T372K)
D-3-phosphoglycerate …: AKVSLEKDKIKFLLVEGVHQKALESLRAAGYTNIEFHKGALDDEQLKESIRDAHFIGLRSRTHLTEDVINAAEKLVAIGCFCIGTNQVDLDAAAKRGIPVFNAPFSNTRSVAELVIGELLLLLRGVPEANAKAHRGVWNKLAAGSFEARGKKLGIIGYGHIGTQLGILAESLGMYVYFYDIENKLPLGNATQVQHLSDLLNMSDVVSLHVPENPSTKNMMGAKEISLMKPGSLLINASRGTVVDIPALCDALASKHLAGAAIDVFPTEPATNSDPFTSPLCEFDNVLLTPHIGGSTQEAQENIGLEVAGKLIKYSDNGSTLSAVNFPEVSLPLHGGRRLMHIHENRPGVLTALNKIFAEQGVNIAAQYLQKSAQMGYVVIDIEADEDVAEKALQAMKAIPGTIRARLLY
As to B10, in test [1], the Activity stood at 0.05 units/mg.

B11: serA21: E. coli PGD variant with replacement T372D (protein, UniProt P0A9T0 2-410, looked up, variant T372D)
D-3-phosphoglycerate …: AKVSLEKDKIKFLLVEGVHQKALESLRAAGYTNIEFHKGALDDEQLKESIRDAHFIGLRSRTHLTEDVINAAEKLVAIGCFCIGTNQVDLDAAAKRGIPVFNAPFSNTRSVAELVIGELLLLLRGVPEANAKAHRGVWNKLAAGSFEARGKKLGIIGYGHIGTQLGILAESLGMYVYFYDIENKLPLGNATQVQHLSDLLNMSDVVSLHVPENPSTKNMMGAKEISLMKPGSLLINASRGTVVDIPALCDALASKHLAGAAIDVFPTEPATNSDPFTSPLCEFDNVLLTPHIGGSTQEAQENIGLEVAGKLIKYSDNGSTLSAVNFPEVSLPLHGGRRLMHIHENRPGVLTALNKIFAEQGVNIAAQYLQDSAQMGYVVIDIEADEDVAEKALQAMKAIPGTIRARLLY
As for B11, the Activity in test [1] came to 0.05 units/mg.

As usually defined, the Ki is the dissociation constant of the complex between target and ligand, obtained from inhibition or displacement. A high value points to a looser hold on the target.

For the origin of these results see patent US7582460B2 (Wacker Chemie AG, priority 2003, dated 2009).
